Values joined by “and” are separate entries in the source; they are usually repeats but may differ in a detail not shown here. Equal entries are not always repeated.
Columns and labels:
Assay in all cases: pull-down
[1] = molecular target: GST-NR1-1a (GST fused to the cytoplasmic tail of NR1-1a) (UniProt P35439)
[2] = molecular target: PKA phosphorylated GST-NR1-1a
[3] = molecular target: PKC-phosphorylated GST-NR1-1a

importin α (endogenous, rat brain) (from UniProt P83953 1-538) (natural protein)
importin α pulled down (immunoblot signal, a.u.) [1]: 0.94 a.u. and 1.43 a.u. | importin α pulled down (immunoblot signal, a.u.) [2]: 1.33 a.u. | importin α pulled down (immunoblot signal, a.u.) [3]: 0.378 a.u.

— article PMC2819930
